Values quoted from earlier work as cited in patent publication US20240325609A1, “POLYPEPTIDE MONOLITHS” (Trustees of Tufts College, priority 2015, published 2024).

Details: room temperature for 14 days, not encapsulated

Substance: HRP not encapsulated in silk: free horse radish peroxidase enzyme
- shelf stability of HRP: not shelf-stable
